According to EP4722253A1 (dated 2026):

T1: FcγRIIa (UniProt P12318 34-217)
T1 sequence (looked up): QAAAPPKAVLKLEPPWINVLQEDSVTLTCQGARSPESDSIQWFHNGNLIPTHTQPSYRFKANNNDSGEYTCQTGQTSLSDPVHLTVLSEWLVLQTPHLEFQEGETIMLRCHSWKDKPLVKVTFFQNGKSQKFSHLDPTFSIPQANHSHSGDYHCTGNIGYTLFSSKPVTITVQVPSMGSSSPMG

B1: Q-SBL-101 (bispecific antibody, human IgG1, kappa)
heavy 1: not shown
heavy 2: EVQLVESGGGLVQPGGSLRLSCAASGYTFTNYGMNWVRQAPGKGLEWVGWINTYTGEPTYAADFKRRFTFSLDTSKSTAYLQMNSLRAEDTAVYYCAKYPHYYGSSHWYFDVWGQGTLVTVSSASTKGPSVFPLAPSSKSTSGGTAALGCLVKDYFPEPVTVSWNSGALTSGVHTFPAVLQSSGLYSLSSVVTVPSSSLGTQTYICNVNHKPSNTKVDKKVEPKSCDKTHTCPPCPAPELLGGPSVFLFPPKPKDTLMISRTPEVTCVVVDVSHEDPEVKFNWYVDGVEVHNAKTKPREEQYNSTYRVVSVLTVLHQDWLNGKEYKCKVSNKALPAPIEKTISKAKGQPREPQVCTLPPSRREMTKNQVSLWCLVKGFYPSDIAVEWESNGQPENNYKTTPPVLDSDGSFFLYSKLTVDKSRWQQGNVFSCSVMHEALHNHYTQKSLSLSPGK
light 1: not shown
light 2: not shown
notes: copies: 1 + 1 + 1 + 1
B2: Q-SBL-104 (bispecific antibody, human IgG1, kappa)
heavy 1: not shown
heavy 2: EVQLVESGGGLVQPGGSLRLSCAASGYTFTNYGMNWVRQAPGKGLEWVGWINTYTGEPTYAADFKRRFTFSLDTSKSTAYLQMNSLRAEDTAVYYCAKYPHYYGSSHWYFDVWGQGTLVTVSSASTKGPSVFPLAPSSKSTSGGTAALGCLVKDYFPEPVTVSWNSGALTSGVHTFPAVLQSSGLYSLSSVVTVPSSSLGTQTYICNVNHKPSNTKVDKKVEPKSCDKTHTCPPCPAPELLGGPSVFLFPPKPKDTLMISRTPEVTCVVVDVSHEDPEVKFNWYVDGVEVHNAKTKPREEQYNSTYRVVSVLTVLHQDWLNGKEYKCKVSNKALPAPIEKTISKAKGQPREPQVCTLPPSRREMTKNQVSLWCLVKGFYPSDIAVEWESNGQPENNYKTTPPVLHSDGSFFLYSKLTVDKSRWQQGNVFSCSVMHEALHNHYTQKSLSLSPGK
light 1: not shown
light 2: not shown
notes: copies: 1 + 1 + 1 + 1
B3: Q-SBL-136 (bispecific antibody, human IgG1, kappa)
heavy 1: not shown
heavy 2: EVQLVESGGGLVQPGGSLRLSCAASGYTFTNYGMNWVRQAPGKGLEWVGWINTYTGEPTYAADFKRRFTFSLDTSKSTAYLQMNSLRAEDTAVYYCAKYPHYYGSSHWYFDVWGQGTLVTVSSASTKGPSVFPLAPSSKSTSGGTAALGCLVKDYFPEPVTVSWNSGALTSGVHTFPAVLQSSGLYSLSSVVTVPSSSLGTQTYICNVNHKPSNTKVDKKVEPKSCDKTHTCPPCPAPELLGGPSVFLFPPKPKDTLMISRTPEVTCVVVDVSHEDPEVKFNWYVDGVEVHNAKTKPREEQYNSTYRVVSVLTVLHQDWLNGKEYKCKVSNKALPAPIEKTISKAKGQPREPQVCTLPPSREEMTKNQVSLWCLVKGFYPSDIAVEWESNGQPENNYKTTPPVLDSDGSFFLYSTLTVDKSRWQQGNVFSCSVMHEALHNHYTQKSLSLSPGK
light 1: not shown
light 2: not shown
notes: copies: 1 + 1 + 1 + 1
B4: Q-SBL-105 (bispecific antibody, human IgG1, kappa)
heavy 1: not shown
heavy 2: EVQLVESGGGLVQPGGSLRLSCAASGYTFTNYGMNWVRQAPGKGLEWVGWINTYTGEPTYAADFKRRFTFSLDTSKSTAYLQMNSLRAEDTAVYYCAKYPHYYGSSHWYFDVWGQGTLVTVSSASTKGPSVFPLAPSSKSTSGGTAALGCLVKDYFPEPVTVSWNSGALTSGVHTFPAVLQSSGLYSLSSVVTVPSSSLGTQTYICNVNHKPSNTKVDKKVEPKSCDKTHTCPPCPAPELLGGPSVFLFPPKPKDTLMISRTPEVTCVVVDVSHEDPEVKFNWYVDGVEVHNAKTKPREEQYNSTYRVVSVLTVLHQDWLNGKEYKCKVSNKALPAPIEKTISKAKGQPREPQVCTLPPSRRRMTKNQVSLWCLVKGFYPSDIAVEWESNGQPENNYKTTPPVLDSDGSFFLYSKLTVDKSRWQQGNVFSCSVMHEALHNHYTQKSLSLSPGK
light 1: not shown
light 2: not shown
notes: copies: 1 + 1 + 1 + 1
B5: Q-SBL-117 (bispecific antibody, human IgG1, kappa)
heavy 1: not shown
heavy 2: EVQLVESGGGLVQPGGSLRLSCAASGYTFTNYGMNWVRQAPGKGLEWVGWINTYTGEPTYAADFKRRFTFSLDTSKSTAYLQMNSLRAEDTAVYYCAKYPHYYGSSHWYFDVWGQGTLVTVSSASTKGPSVFPLAPSSKSTSGGTAALGCLVKDYFPEPVTVSWNSGALTSGVHTFPAVLQSSGLYSLSSVVTVPSSSLGTQTYICNVNHKPSNTKVDKKVEPKSCDKTHTCPPCPAPELLGGPSVFLFPPKPKDTLMISRTPEVTCVVVDVSHEDPEVKFNWYVDGVEVHNAKTKPREEQYNSTYRVVSVLTVLHQDWLNGKEYKCKVSNKALPAPIEKTISKAKGQPREPQVCTLPPSRKEMTKNQVSLWCLVKGFYPSDIAVEWESNGQPENNYKTTPPVLDSDGSFFLYSKLTVDKSRWQQGNVFSCSVMHEALHNHYTQKSLSLSPGK
light 1: not shown
light 2: not shown
notes: copies: 1 + 1 + 1 + 1
B6: Q-SBL-109 (bispecific antibody, human IgG1, kappa)
heavy 1: not shown
heavy 2: EVQLVESGGGLVQPGGSLRLSCAASGYTFTNYGMNWVRQAPGKGLEWVGWINTYTGEPTYAADFKRRFTFSLDTSKSTAYLQMNSLRAEDTAVYYCAKYPHYYGSSHWYFDVWGQGTLVTVSSASTKGPSVFPLAPSSKSTSGGTAALGCLVKDYFPEPVTVSWNSGALTSGVHTFPAVLQSSGLYSLSSVVTVPSSSLGTQTYICNVNHKPSNTKVDKKVEPKSCDKTHTCPPCPAPELLGGPSVFLFPPKPKDTLMISRTPEVTCVVVDVSHEDPEVKFNWYVDGVEVHNAKTKPREEQYNSTYRVVSVLTVLHQDWLNGKEYKCKVSNKALPAPIEKTISKAKGQPREPQVCTLPPSRREMTKNQVSLWCLVKGFYPSDIAVEWESNGQPENNYKTTPPVLDSDGSFFLYSKLTVDKSRWQQGNVFSCSVMHEALHNHYTQKSLSLSPGK
light 1: not shown
light 2: not shown
notes: copies: 1 + 1 + 1 + 1
B7: Q-SBL-106 (bispecific antibody, human IgG1, kappa)
heavy 1: not shown
heavy 2: EVQLVESGGGLVQPGGSLRLSCAASGYTFTNYGMNWVRQAPGKGLEWVGWINTYTGEPTYAADFKRRFTFSLDTSKSTAYLQMNSLRAEDTAVYYCAKYPHYYGSSHWYFDVWGQGTLVTVSSASTKGPSVFPLAPSSKSTSGGTAALGCLVKDYFPEPVTVSWNSGALTSGVHTFPAVLQSSGLYSLSSVVTVPSSSLGTQTYICNVNHKPSNTKVDKKVEPKSCDKTHTCPPCPAPELLGGPSVFLFPPKPKDTLMISRTPEVTCVVVDVSHEDPEVKFNWYVDGVEVHNAKTKPREEQYNSTYRVVSVLTVLHQDWLNGKEYKCKVSNKALPAPIEKTISKAKGQPREPQVCTLPPSRERMTKNQVSLWCLVKGFYPSDIAVEWESNGQPENNYKTTPPVLHSDGSFFLYSKLTVDKSRWQQGNVFSCSVMHEALHNHYTQKSLSLSPGK
light 1: not shown
light 2: not shown
notes: copies: 1 + 1 + 1 + 1
B8: Q-SBL-135 (bispecific antibody, human IgG1, kappa)
heavy 1: not shown
heavy 2: EVQLVESGGGLVQPGGSLRLSCAASGYTFTNYGMNWVRQAPGKGLEWVGWINTYTGEPTYAADFKRRFTFSLDTSKSTAYLQMNSLRAEDTAVYYCAKYPHYYGSSHWYFDVWGQGTLVTVSSASTKGPSVFPLAPSSKSTSGGTAALGCLVKDYFPEPVTVSWNSGALTSGVHTFPAVLQSSGLYSLSSVVTVPSSSLGTQTYICNVNHKPSNTKVDKKVEPKSCDKTHTCPPCPAPELLGGPSVFLFPPKPKDTLMISRTPEVTCVVVDVSHEDPEVKFNWYVDGVEVHNAKTKPREEQYNSTYRVVSVLTVLHQDWLNGKEYKCKVSNKALPAPIEKTISKAKGQPREPQVCTLPPSREEMTKNQVSLWCLVKGFYPSDIAVEWESNGQPENNYKTTPPVLDSDGSFFLYSVLTVDKSRWQQGNVFSCSVMHEALHNHYTQKSLSLSPGK
light 1: not shown
light 2: not shown
notes: copies: 1 + 1 + 1 + 1
B9: Q-SBL-103 (bispecific antibody, human IgG1, kappa)
heavy 1: not shown
heavy 2: EVQLVESGGGLVQPGGSLRLSCAASGYTFTNYGMNWVRQAPGKGLEWVGWINTYTGEPTYAADFKRRFTFSLDTSKSTAYLQMNSLRAEDTAVYYCAKYPHYYGSSHWYFDVWGQGTLVTVSSASTKGPSVFPLAPSSKSTSGGTAALGCLVKDYFPEPVTVSWNSGALTSGVHTFPAVLQSSGLYSLSSVVTVPSSSLGTQTYICNVNHKPSNTKVDKKVEPKSCDKTHTCPPCPAPELLGGPSVFLFPPKPKDTLMISRTPEVTCVVVDVSHEDPEVKFNWYVDGVEVHNAKTKPREEQYNSTYRVVSVLTVLHQDWLNGKEYKCKVSNKALPAPIEKTISKAKGQPREPQVCTLPPSRERMTKNQVSLWCLVKGFYPSDIAVEWESNGQPENNYKTTPPVLDSDGSFFLYSKLTVDKSRWQQGNVFSCSVMHEALHNHYTQKSLSLSPGK
light 1: not shown
light 2: not shown
notes: copies: 1 + 1 + 1 + 1
B10: Q-SBL-114 (bispecific antibody, human IgG1, kappa)
heavy 1: not shown
heavy 2: EVQLVESGGGLVQPGGSLRLSCAASGYTFTNYGMNWVRQAPGKGLEWVGWINTYTGEPTYAADFKRRFTFSLDTSKSTAYLQMNSLRAEDTAVYYCAKYPHYYGSSHWYFDVWGQGTLVTVSSASTKGPSVFPLAPSSKSTSGGTAALGCLVKDYFPEPVTVSWNSGALTSGVHTFPAVLQSSGLYSLSSVVTVPSSSLGTQTYICNVNHKPSNTKVDKKVEPKSCDKTHTCPPCPAPELLGGPSVFLFPPKPKDTLMISRTPEVTCVVVDVSHEDPEVKFNWYVDGVEVHNAKTKPREEQYNSTYRVVSVLTVLHQDWLNGKEYKCKVSNKALPAPIEKTISKAKGQPREPQVCTLPPSREEMTKNQVSLWCLVKGFYPSDIAVEWESNGQPENNYKTTPPVLHSDGSFFLYSKLTVDKSRWQQGNVFSCSVMHEALHNHYTQKSLSLSPGK
light 1: not shown
light 2: not shown
notes: copies: 1 + 1 + 1 + 1
B11: Q-SBL-102 (bispecific antibody, human IgG1, kappa)
heavy 1: not shown
heavy 2: EVQLVESGGGLVQPGGSLRLSCAASGYTFTNYGMNWVRQAPGKGLEWVGWINTYTGEPTYAADFKRRFTFSLDTSKSTAYLQMNSLRAEDTAVYYCAKYPHYYGSSHWYFDVWGQGTLVTVSSASTKGPSVFPLAPSSKSTSGGTAALGCLVKDYFPEPVTVSWNSGALTSGVHTFPAVLQSSGLYSLSSVVTVPSSSLGTQTYICNVNHKPSNTKVDKKVEPKSCDKTHTCPPCPAPELLGGPSVFLFPPKPKDTLMISRTPEVTCVVVDVSHEDPEVKFNWYVDGVEVHNAKTKPREEQYNSTYRVVSVLTVLHQDWLNGKEYKCKVSNKALPAPIEKTISKAKGQPREPQVCTLPPSREEMTKNQVSLWCLVKGFYPSDIAVEWESNGQPENNYKTTPPVLHSDGSFFLYSKLTVDKSRWQQGNVFSCSVMHEALHNHYTQKSLSLSPGK
light 1: not shown
light 2: not shown
notes: copies: 1 + 1 + 1 + 1

What was measured:
FcγRIIIa = biological target: T2, FcγRIIIa (UniProt P08637 17-208); experiment: BLI (Octet HTX), antibody on FAB2G biosensor, FcγRIIIa in solution
T2 construct: also called FcyRIIIa

FcRn = biological target: T3, FcRn (UniProt P55899 24-297); experiment: BLI (Octet HTX), antibody on FAB2G biosensor, FcRn in solution, pH 6.0
T3 construct: also called neonatal Fc receptor

FcγRIIa = biological target: T1, FcγRIIa; experiment: BLI (Octet HTX), antibody on FAB2G biosensor, FcγRIIa in solution
[1] = biological target: T4, C1q, complement component 1q (UniProt P02745 23-245; P02746 28-253; P02747 29-245); experiment: BLI (Octet HTX), antibody on FAB2G biosensor, C1q in solution
T4 construct: also called Clq
T4 sequence (P02745 23-245 limits assumed, chain 1 of 3): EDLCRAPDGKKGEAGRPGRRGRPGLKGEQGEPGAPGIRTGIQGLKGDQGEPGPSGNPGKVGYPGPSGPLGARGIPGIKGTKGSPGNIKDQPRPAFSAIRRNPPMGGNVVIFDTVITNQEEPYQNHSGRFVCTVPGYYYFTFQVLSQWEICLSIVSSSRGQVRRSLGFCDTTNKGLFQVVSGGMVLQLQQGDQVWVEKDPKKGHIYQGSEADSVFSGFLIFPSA
T4 sequence (P02746 28-253 limits assumed, chain 2 of 3): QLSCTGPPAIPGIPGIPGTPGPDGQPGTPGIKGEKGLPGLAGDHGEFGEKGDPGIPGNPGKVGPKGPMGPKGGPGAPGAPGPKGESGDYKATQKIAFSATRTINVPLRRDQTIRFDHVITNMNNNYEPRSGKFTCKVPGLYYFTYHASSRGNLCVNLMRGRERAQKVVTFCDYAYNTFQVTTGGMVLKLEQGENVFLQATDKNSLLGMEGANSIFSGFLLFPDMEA
T4 sequence (P02747 29-245 limits assumed, chain 3 of 3): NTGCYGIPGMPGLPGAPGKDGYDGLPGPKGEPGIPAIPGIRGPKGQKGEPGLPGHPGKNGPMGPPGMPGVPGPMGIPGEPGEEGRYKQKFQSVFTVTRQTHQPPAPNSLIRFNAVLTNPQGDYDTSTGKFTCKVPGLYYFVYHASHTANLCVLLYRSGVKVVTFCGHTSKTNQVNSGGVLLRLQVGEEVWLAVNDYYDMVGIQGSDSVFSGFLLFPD

T2 sequence (P08637 17-208 limits assumed): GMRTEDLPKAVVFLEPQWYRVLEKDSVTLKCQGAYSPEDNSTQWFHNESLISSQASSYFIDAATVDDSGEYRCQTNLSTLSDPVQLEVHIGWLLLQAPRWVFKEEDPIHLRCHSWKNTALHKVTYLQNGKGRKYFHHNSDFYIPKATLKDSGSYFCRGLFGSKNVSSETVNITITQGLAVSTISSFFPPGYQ
T3 sequence (P55899 24-297 limits assumed, form in doubt): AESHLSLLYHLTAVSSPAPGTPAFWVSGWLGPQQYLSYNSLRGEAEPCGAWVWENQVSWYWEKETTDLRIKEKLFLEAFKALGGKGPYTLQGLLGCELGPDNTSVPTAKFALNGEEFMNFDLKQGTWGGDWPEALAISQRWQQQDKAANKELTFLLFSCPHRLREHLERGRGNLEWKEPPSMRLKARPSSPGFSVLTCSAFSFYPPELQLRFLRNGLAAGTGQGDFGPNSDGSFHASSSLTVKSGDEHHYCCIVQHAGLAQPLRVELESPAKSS

| Binder | Kd (FcγRIIIa) [nM] | Kd (FcRn) [nM] | Kd (FcγRIIa) [nM] | Kd [1] [nM] |
| --- | --- | --- | --- | --- |
| B1 | 500 | 730 | 2460 | 36 |
| B2 |  | 680 | 1870 |  |
| B3 | 230 | 620 | 1970 |  |
| B4 | 430 | 710 | 1910 |  |
| B5 | 360 |  | 2550 | 40 |
| B6 | 340 | 640 | 2200 | 28 |
| B7 |  | 680 |  |  |
| B8 | 300 | 650 | 1380 |  |
| B9 | 220 |  | 1130 | 40 |
| B10 | 230 |  | 1860 | 18 |
| B11 | 420 | 710 | 1700 | 40 |
